{"source": "the RNAGym collection of RNA variant scans (doi:10.1073/pnas.2313332121)", "parents": {"B1": {"name": "TPR t1 (parent)", "chain": "GACCAAUCUGCCCUCAGAGCUCGAGAACAUCUUCGGAUGCAGAGGAGGCAGGCUUCGGUGGCGCGAUAGCGCCAACGUCCUCAACCUCCAAUGCAUCCCACCACAUGAUGAUGCCUGAAGAGCCUUGGUUUUUUG"}}}
{"variants_of": "B1", "test": "polymerase ribozyme fitness, log enrichment relative to wild type (log ratio); higher = more active; in vitro selection for triplet polymerase activity", "outline": "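For each subunit of a heterodimeric triplet polymerase ribozyme, a mutant library was built by PCR and transcribed, then taken through a single in vitro selection round in triplicate. Selection involved annealing to a biotinylated primer, the partner subunit and triplets, incubation frozen at −7 °C, gel excision of extended constructs, capture on streptavidin beads and RT-PCR. Genotypes were retained after Illumina sequencing of inputs and outputs only with ≥10 input reads and ≥1 read in each output. Fitness is defined as the logarithm of a genotype's enrichment relative to wild-type enrichment, using inverse-variance-weighted averages across replicates, with the logarithm taken to base 2.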"}
{"variant": "C53A A74G", "polymerase ribozyme fitness (log ratio)": -0.303}
{"variant": "G52U C70G C72U", "polymerase ribozyme fitness (log ratio)": -3.48}
{"variant": "G52A C104U", "polymerase ribozyme fitness (log ratio)": 0.136}
{"variant": "G52U C73U A83U G120A C124U", "polymerase ribozyme fitness (log ratio)": -0.229}
{"variant": "C53A C56U C72G A111C", "polymerase ribozyme fitness (log ratio)": -1.38}
{"variant": "G51A G63U C80A U96G", "polymerase ribozyme fitness (log ratio)": -5.76}
{"variant": "G51U C79G U87G", "polymerase ribozyme fitness (log ratio)": -1.09}
{"variant": "G51U C101A", "polymerase ribozyme fitness (log ratio)": -4.55}
{"variant": "G51A G57C U112G", "polymerase ribozyme fitness (log ratio)": -1.7}
{"variant": "G51U C53A G60A", "polymerase ribozyme fitness (log ratio)": -5.54}
{"variant": "G52C A84G U87C A111G", "polymerase ribozyme fitness (log ratio)": -2.78}
{"variant": "G52U A111U", "polymerase ribozyme fitness (log ratio)": -3.93}
{"variant": "G52U A111C", "polymerase ribozyme fitness (log ratio)": -2.18}
{"variant": "C53A C70A A75U C79A C82G U112C", "polymerase ribozyme fitness (log ratio)": -3.2}
{"variant": "G52A C56U U59G C114U C124A G135C", "polymerase ribozyme fitness (log ratio)": -0.522}
{"variant": "G52U U87A", "polymerase ribozyme fitness (log ratio)": -1.25}
{"variant": "G51U C115U", "polymerase ribozyme fitness (log ratio)": -4.89}
{"variant": "G51A G69U C88U G93A U109G U133C", "polymerase ribozyme fitness (log ratio)": -4.55}
{"variant": "G52U A105G A121C", "polymerase ribozyme fitness (log ratio)": -2.06}
{"variant": "G51C C73G C114A", "polymerase ribozyme fitness (log ratio)": -6.6}
{"variant": "G51C G71A C82G C85A", "polymerase ribozyme fitness (log ratio)": -4.52}
{"variant": "C53A A66U", "polymerase ribozyme fitness (log ratio)": -1.07}
{"variant": "G51U C79G C94A C124A", "polymerase ribozyme fitness (log ratio)": -1.56}
{"variant": "C53A C72U", "polymerase ribozyme fitness (log ratio)": -0.465}
{"variant": "C53A C72A", "polymerase ribozyme fitness (log ratio)": -1.56}
{"variant": "G52U C72U A121C", "polymerase ribozyme fitness (log ratio)": 0.242}
{"variant": "G52C G69A", "polymerase ribozyme fitness (log ratio)": -3.55}
{"variant": "G52C G69U", "polymerase ribozyme fitness (log ratio)": -0.241}
{"variant": "G52A U92A C98U A119U C124A", "polymerase ribozyme fitness (log ratio)": -3.81}
{"variant": "G52C C53G A68G G77A U81A C98U", "polymerase ribozyme fitness (log ratio)": -5.4}
{"variant": "G52C U132A", "polymerase ribozyme fitness (log ratio)": -1.09}
{"variant": "G52A G60U C82A C88U A90G U116A U130A", "polymerase ribozyme fitness (log ratio)": -6.12}
{"variant": "G52U C72A C85A", "polymerase ribozyme fitness (log ratio)": -1.3}
{"variant": "G52A C79U G120U", "polymerase ribozyme fitness (log ratio)": -0.265}
{"variant": "G51U U130A", "polymerase ribozyme fitness (log ratio)": -3.79}
{"variant": "G52C G71U", "polymerase ribozyme fitness (log ratio)": -0.867}
{"variant": "G52A C102A", "polymerase ribozyme fitness (log ratio)": -1.79}
{"variant": "G51U C101U G120U", "polymerase ribozyme fitness (log ratio)": -4.49}
{"variant": "G51A G52A G61U C101U", "polymerase ribozyme fitness (log ratio)": -3.85}
{"variant": "G51U G93C", "polymerase ribozyme fitness (log ratio)": -4.26}
{"variant": "G51U G61U G127A", "polymerase ribozyme fitness (log ratio)": -4.92}
{"variant": "G52A A68G G93A", "polymerase ribozyme fitness (log ratio)": -5.07}
{"variant": "G51A G77C A95C", "polymerase ribozyme fitness (log ratio)": -4.86}
{"variant": "G51U C104A U133G", "polymerase ribozyme fitness (log ratio)": -5.02}
{"variant": "G51A C89G", "polymerase ribozyme fitness (log ratio)": -4.83}
{"variant": "G51U G60A", "polymerase ribozyme fitness (log ratio)": -2.28}
{"variant": "G52A U78A C115A", "polymerase ribozyme fitness (log ratio)": 0.0466}
{"variant": "G52A C56U G93A", "polymerase ribozyme fitness (log ratio)": -0.382}
{"variant": "G51C G110C", "polymerase ribozyme fitness (log ratio)": -6.54}
{"variant": "G51U U54G C62A G113U", "polymerase ribozyme fitness (log ratio)": -7.8}
{"variant": "G52A C72A", "polymerase ribozyme fitness (log ratio)": 0.151}
{"variant": "G52U C82G", "polymerase ribozyme fitness (log ratio)": -2.18}
{"variant": "G52U C53U", "polymerase ribozyme fitness (log ratio)": -1.04}
{"variant": "G52C U54G G69A U87C A100U", "polymerase ribozyme fitness (log ratio)": -6.57}
{"variant": "G52U C64U", "polymerase ribozyme fitness (log ratio)": -0.768}
{"variant": "G52A C114G", "polymerase ribozyme fitness (log ratio)": -3.02}
{"variant": "G51U A84C C88A A121C", "polymerase ribozyme fitness (log ratio)": -1.74}
{"variant": "G51A G61U G128C", "polymerase ribozyme fitness (log ratio)": -5}
{"variant": "C53A C79U C86U", "polymerase ribozyme fitness (log ratio)": -0.479}
{"variant": "G51A C64G C101G G113A C123A", "polymerase ribozyme fitness (log ratio)": -6.84}
{"variant": "G52U C72U", "polymerase ribozyme fitness (log ratio)": -0.747}
{"variant": "C53A C56U U78C A118U G120C", "polymerase ribozyme fitness (log ratio)": 0.115}
{"variant": "G52C C88A", "polymerase ribozyme fitness (log ratio)": -0.833}
{"variant": "G51U G57A G65U A121U", "polymerase ribozyme fitness (log ratio)": -7.73}
{"variant": "G51A G71C U112C", "polymerase ribozyme fitness (log ratio)": -2.08}
{"variant": "G51U C72A U130G", "polymerase ribozyme fitness (log ratio)": -3.04}
{"variant": "G52U U106C A118G", "polymerase ribozyme fitness (log ratio)": -0.754}
{"variant": "G51U C73A U106A C124A U126A U129A U131A", "polymerase ribozyme fitness (log ratio)": -2.8}
{"variant": "G52C U54G C82G", "polymerase ribozyme fitness (log ratio)": -1.46}
{"variant": "G52C A100C C114A", "polymerase ribozyme fitness (log ratio)": -4.06}
{"variant": "G52C U55G A83C C115U A118G", "polymerase ribozyme fitness (log ratio)": -2.39}
{"variant": "C53A C86U G128U", "polymerase ribozyme fitness (log ratio)": -1.61}
{"variant": "G52A C56A", "polymerase ribozyme fitness (log ratio)": -0.146}
{"variant": "G52C C114U", "polymerase ribozyme fitness (log ratio)": -3.57}
{"variant": "G52U U81C", "polymerase ribozyme fitness (log ratio)": -1.74}
{"variant": "G51A U78C", "polymerase ribozyme fitness (log ratio)": -2.47}
{"variant": "G52U U92A C104U", "polymerase ribozyme fitness (log ratio)": -4.43}
{"variant": "G52A C85G C124A", "polymerase ribozyme fitness (log ratio)": 0.15}
{"variant": "G52C C53A C97U C101U", "polymerase ribozyme fitness (log ratio)": -1.86}
{"variant": "G52U U126G", "polymerase ribozyme fitness (log ratio)": -2.79}
{"variant": "C53A C88G C104A U129A", "polymerase ribozyme fitness (log ratio)": -3.51}
{"variant": "G51C G52A U81C", "polymerase ribozyme fitness (log ratio)": -5.02}
{"variant": "G52U C53U C56U G93U U109G", "polymerase ribozyme fitness (log ratio)": -6.55}
{"variant": "G52C G63C U87C", "polymerase ribozyme fitness (log ratio)": -0.694}
